Experimental data from patent publication US20140249052A1.

Target: Bio-GrBP5 (biotin-graphite binding peptide fusion, Bio-…)
Experiment: integrated photoluminescence at 605 nm (514 nm laser) of SA-QD immobilised on bio-GrBP5 nanowires on graphite; the row 'SA-QD Bare' (38019.9, Std. Dev. 8427) is on graphite without peptide

Intensity (AU): 88200 AU
Substance: Cd-Se Qdot 605-streptavidin conjugate (Q10101MP, Life Technologies) (from UniProt P22629 37-163)
